Reference: patent US20180244779A1 (KADMON, published 2018)
Blank lines part the entries; values can stand above or below the binder they belong to.

Legend:
hPD-1-Fc = molecular target: T1, hPD-1-Fc (human, UniProt Q15116 25-167, limits assumed); assay: dose-response ELISA, immobilized hPD-1-Fc
T1 construct: It was immobilized on the ELISA plate; also called soluble human PD-1-Fc; not shown: Fc part
Description: (§1) The binding activity of the five antibodies was examined using dose-response ELISA. The serially diluted antibodies were added to immobilized hPD-1-Fc and detected by HRP conjugated anti-hIgG Fab specific antibody. The OD450 reading was plotted vs. log antibody concentration using GraphPad Prism6. EC50 was calculated by using “dose-response” (stimulation) variable slope (four parameters)” program. The antibodies were also added to immobilized mPD-1-Fc and other Fc-fusions to determine specificity for hPD-1-Fc and to immobilized anti-human IgG fc specific antibody (anti-hFc Ab) to check the accuracy of the concentration measurement.

mPD-1-Fc = molecular target: T2, mPD-1-Fc (murine, UniProt Q02242 25-167, limits assumed); assay: dose-response ELISA, immobilized mPD-1-Fc
T2 construct: also called murine PD-1; not shown: Fc part
T2 sequence (looked up): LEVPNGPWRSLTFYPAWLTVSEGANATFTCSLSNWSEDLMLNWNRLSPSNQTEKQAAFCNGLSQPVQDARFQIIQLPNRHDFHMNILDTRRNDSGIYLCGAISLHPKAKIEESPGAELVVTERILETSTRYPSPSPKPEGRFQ
Description: as §1

T1 sequence (Q15116 25-167 limits assumed): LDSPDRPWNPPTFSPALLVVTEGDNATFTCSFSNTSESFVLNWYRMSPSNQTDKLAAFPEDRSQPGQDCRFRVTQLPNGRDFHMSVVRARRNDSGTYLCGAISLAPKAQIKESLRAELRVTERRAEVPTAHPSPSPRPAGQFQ

binding result (hPD-1-Fc): binds | binding result (mPD-1-Fc): binds
B3: R4B3 (antibody, V domains shown)
VH: EVQLLESGGGLVQPGGSLRLSCAASGFTFSYYWMSWVRQAPGKGLEWVSYISPSGGMTKYADSVKGRFTISRDNSKNTLYLQMNSLRAEDTAVYYCASASYDYVWGIYHYDVFDIWGQGTMVTVSS
VL: DIQMTQSPSSVSASVGDRVTITCRASQGISSWLAWYQQKPGKAPKLLIYAASSLQSGVPSRFSGSGSGTDFTLTISSLQPEDFATYYCQQANSFPLTFGGGTKVEIKR

binding result (hPD-1-Fc): binds
B4: R3A1 (antibody, V domains shown)
VH: EVQLLESGGGLVQPGGSLRLSCAASGFTFSRYHMMWVRQAPGKGLEWVSSIYPSGGYTYYADSVKGRFTISRDNSKNTLYLQMNSLRAEDTAVYYCAREYFSGPDYWGQGTLVTVSS
VL: DIQMTQSPSTLSASVGDRVTITCRASQKISRWLAWYQQTPGKAPKLLIYRASDLESGVPSRFSGSGSGTEFTLTISSLQPDDFATYYCQQYNTYPYTFGQGTKLEIKR

More lines, now with the values behind:

B1: R3D6 (antibody, V domains shown)
VH: EVQLLESGGGLVQPGGSLRLSCAASGFTFSDYNMAWVRQAPGKGLEWVSSIGPSGGNTHYADSVKGRFTISRDNSKNTLYLQMNSLRAEDMAVYYCARERVEYYYYGMDVWGKGTTVTVSS
VL: QSALTQAPSVSVAPGQTARITCGGDNIESLSVHWYQQKPGQAPVLVVYDDADRPSGTPERFSGSNSGNTATLTINRAEAGDEADYYCQVWDYSSDVVVFGGGTTLTVLG
binding result (hPD-1-Fc): binds

B2: R3A2 (antibody, V domains shown)
VH: EVQLLESGGGLVQPGGSLRLSCAASGFTFSWYSMLWVRQAPGKGLEWVSRIYPSGGFTYYADSVKGRFTISRDNSKNTLYLQMNSLRAEDTAVYYCARVIDIVGATGRLQHGMDVWGQGTTVTVSS
VL: QYELTQPPSVSVAPGQTAKITCGGNNIGSKSVNWYQQKTGQAPVLVVHDDSDRPSGIPERLSGSNSGNTATLTISRAEAGDEADYYCQVWDSVSDHYVFGTGTKVTVLG
binding result (hPD-1-Fc): binds
